Legend:
[1] = molecular target: APEH-3Ss, acylpeptide hydrolase from Sulfolobus solfataricus coded by the gene sso2693 (Sulfolobus solfataricus P2); experiment: SEC; Superose 12 3.2/30; enzyme treated with 0.5 M GnHCl, column equilibrated with Tris-HCl 0.05 M pH 7.5 containing 0.5 M GnHCl
[2] = molecular target: APEH-3Ss, acylpeptide hydrolase from Sulfolobus solfataricus coded by the gene sso2693 (Sulfolobus solfataricus P2); experiment: SEC; Superose 12 3.2/30; enzyme treated with 0.5 M GnHCl, then dialysed extensively against Tris-HCl 0.05 M pH 7.5 before gel filtration
[3] = molecular target: APEH-3Ss, acylpeptide hydrolase from Sulfolobus solfataricus coded by the gene sso2693 (Sulfolobus solfataricus P2); experiment: SEC; gel filtration of the native purified enzyme on two columns (Superdex 200 HR 10/30; Superose 12 PC 3.2/30), calibrated with BioRad gel filtration standards
[4] = molecular target: APEH-3Ss, acylpeptide hydrolase from Sulfolobus solfataricus coded by the gene sso2693 (Sulfolobus solfataricus P2)
purified protein [5] = substrate: CC(=O)N[C@@H](C)C(=O)Nc1ccc([N+](=O)[O-])cc1; experiment: purified protein; assay type: biochemical, Saccharolobus solfataricus; conditions: 25 mM Tris-HCl pH 7.5, 90°C
purified protein [6] = substrate: CC(=O)N[C@@H](CC(C)C)C(=O)Nc1ccc([N+](=O)[O-])cc1; experiment: purified protein; assay type: biochemical, Saccharolobus solfataricus; conditions: 25 mM Tris-HCl pH 7.5, 90°C
purified protein [7] = substrate: CC(=O)N[C@@H](Cc1ccccc1)C(=O)Nc1ccc([N+](=O)[O-])cc1; experiment: purified protein; assay type: biochemical, Saccharolobus solfataricus; conditions: 25 mM Tris-HCl pH 7.5, 90°C

Question: Which results are given for “APEH-3Ss, acylpeptide hydrolase from Sulfolobus solfataricus coded by the gene sso2693 (enzyme)”?
Answer: stoichiometry N [1]: 2; stoichiometry N [2]: 3; stoichiometry N [3]: 3

B1: SsCEI (Sulfolobus solfataricus chymotrypsin-elastase inhibitor) (natural protein)
chain: MNSESIYSMRVVSSAFKNEDFIPIKYTCDGQDLSPELEWDLVTNAKSYAIIVEDPDAPGGTFIHWVIYNITTNRLPEGVPRLYKSQYGVQGVNDFGNIGYNGPCPPKTHPPHRYYFYVYAIDTILLEIKNINADKLKSLMEGHGIERGFVMGKYKRK
Question: Which IC50 of inhibition of APEH-3Ss activity on Ac-L-pNA (0.2 mM); protease pre-incubated with increasing SsCEI for 30 min at 80°C, Tris-HCl 50 mM pH 7.5 [4] does the source give for B1 here?
Answer: Its IC50 of inhibition of APEH-3Ss activity on Ac-L-pNA (0.2 mM); protease pre-incubated with increasing SsCEI for 30 min at 80°C, Tris-HCl 50 mM pH 7.5 is 0.008 µM.

Question: What about the IC50 of inhibition of APEH-3Ss activity on Suc-GGF-pNA (0.2 mM); protease pre-incubated with increasing SsCEI for 30 min at 80°C, Tris-HCl 50 mM pH 7.5 [4] of the same molecule?
Answer: The IC50 of inhibition of APEH-3Ss activity on Suc-GGF-pNA (0.2 mM); protease pre-incubated with increasing SsCEI for 30 min at 80°C, Tris-HCl 50 mM pH 7.5 was 0.02 µM.

B2: APEH-3Ss (Saccharolobus solfataricus P2) (protein)
chain: MKPEDYYYSIKLVPEITIENGKLFHVETWIEEDKYKSSIYLNLKRITFQGNESSPKFNNDKLYFIRNEEAKSSLLEAQLYGEPKVIFTFSGKISKYEFHNKGILVIAEENTDKTLPFRAEKIKYRFDSRGLLRARQSLYLFDGKDLRRLVTGNFDVTDLATNGNRVVISATKDGDDYGLGNLYEVNIETGELNRITKEDGTVQAIAMNSEGKIAFLGHRKGLTPWASLEIMLPEEGKSYMCGKTCGNKVLTDLFDGVKDRIVFEKDLILSLGQEGGTSHIYQISDNKVDKVTSGNIMVRGFDYSNSELAYFYSTPEKPVILKYRDIEYDPNPNIKGYTPERITVNSNGVEVEGWSIIKDPNAPTILFIHGGPHMAYGYGYFIEFQFFVDNGFNVIYANPRGSQGYGEEFAKACVGDWGGKDFEDLMNFVNTVKERYSLKGKFGITGGSYGGFMTNWIVTKTSMFSAAISERSISNLVSMCGTSDIGFWFNAIESGIADPWSTEGIEKLMKMSPIYYVKNVKTPTMLIHGEEDYRCPIEQAEQFYVALKMQGVPTTLVRYQGDSHEHARRGKPKNMIDRLKTKLEWFSKYLL
notes: native enzyme purified from S. solfataricus P2 cells; full length 591 aa, not processed; N-terminus MKPEDYYYSI; 64 kDa by SDS-PAGE; homotrimer 192 kDa
Question: How did the Km (purified protein [5]) turn out when B2 was run?
Answer: The Km was 800 ± 60 µM.

Question: What about the kcat (purified protein [5]) of the same molecule?
Answer: The kcat was 14 ± 0.1 s⁻¹.

Question: What about the kcat/Km (purified protein [5]) of the same molecule?
Answer: The kcat/Km was 17500 ± 100 M⁻¹ s⁻¹.

Question: And the Km (purified protein [6])?
Answer: Its Km is 600 ± 50 µM.

Question: What about the kcat (purified protein [6]) of the same molecule?
Answer: Its kcat is 18 ± 0.1 s⁻¹.

Question: What about the kcat/Km (purified protein [6]) of the same molecule?
Answer: Its kcat/Km is 32700 ± 400 M⁻¹ s⁻¹.

Question: And the Km (purified protein [7])?
Answer: The Km was 40 µM.

Question: And the kcat (purified protein [7])?
Answer: Its kcat is 0.08 ± 0.005 s⁻¹.

Question: What about the kcat/Km (purified protein [7]) of the same molecule?
Answer: Its kcat/Km is 2000 ± 10 M⁻¹ s⁻¹.

From article PMC3360023, “Identification and Characterisation of a Novel Acylpeptide Hydrolase from Sulfolobus Solfataricus: Structural and Functional Insights” (PLoS ONE, 2012)
